Measurements published in PMC11415702.

Biological target: Complement factor H (CFH) (human, UniProt P08603 19-1231)
Assay: interdigitated electrode current-volt sandwich assay

Complement factor H (CFH), sequence (P08603 19-1231): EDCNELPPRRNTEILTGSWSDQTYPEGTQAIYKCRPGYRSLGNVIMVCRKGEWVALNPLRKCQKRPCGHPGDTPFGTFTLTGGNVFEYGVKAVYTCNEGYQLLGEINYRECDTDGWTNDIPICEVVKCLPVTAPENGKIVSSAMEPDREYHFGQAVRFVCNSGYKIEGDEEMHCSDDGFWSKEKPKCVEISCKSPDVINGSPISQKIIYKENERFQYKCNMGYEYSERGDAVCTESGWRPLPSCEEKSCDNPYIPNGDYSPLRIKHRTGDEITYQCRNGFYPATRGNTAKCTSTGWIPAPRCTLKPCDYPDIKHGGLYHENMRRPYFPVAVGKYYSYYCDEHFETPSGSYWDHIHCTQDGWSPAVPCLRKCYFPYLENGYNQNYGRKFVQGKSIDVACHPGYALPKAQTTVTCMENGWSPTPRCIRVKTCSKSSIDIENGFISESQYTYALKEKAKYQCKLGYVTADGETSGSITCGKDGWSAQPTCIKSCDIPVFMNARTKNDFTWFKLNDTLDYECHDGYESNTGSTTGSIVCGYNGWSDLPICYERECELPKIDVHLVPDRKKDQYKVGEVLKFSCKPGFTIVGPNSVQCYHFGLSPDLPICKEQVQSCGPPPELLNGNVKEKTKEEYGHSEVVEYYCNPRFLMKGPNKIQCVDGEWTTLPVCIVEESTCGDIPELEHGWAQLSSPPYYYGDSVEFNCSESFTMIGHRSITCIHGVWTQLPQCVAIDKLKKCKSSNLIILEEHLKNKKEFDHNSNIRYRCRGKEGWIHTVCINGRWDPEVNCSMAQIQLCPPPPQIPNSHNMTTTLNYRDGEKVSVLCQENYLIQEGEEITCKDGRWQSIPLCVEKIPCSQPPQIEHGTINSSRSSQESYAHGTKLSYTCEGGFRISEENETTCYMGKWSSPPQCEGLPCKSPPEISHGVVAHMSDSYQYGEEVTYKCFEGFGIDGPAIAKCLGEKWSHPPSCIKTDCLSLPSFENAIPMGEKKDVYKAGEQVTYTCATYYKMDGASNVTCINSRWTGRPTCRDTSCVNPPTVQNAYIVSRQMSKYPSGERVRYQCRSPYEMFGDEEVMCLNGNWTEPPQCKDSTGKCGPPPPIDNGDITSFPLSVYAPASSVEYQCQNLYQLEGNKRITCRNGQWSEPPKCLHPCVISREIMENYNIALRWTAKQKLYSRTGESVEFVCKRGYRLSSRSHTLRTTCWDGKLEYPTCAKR

B1: anti-tau DNA aptamer (ssDNA)
DNA: GCGGAGCGTGGCAGG
modifications: biotin (end not stated)
Does B1 bind?
Result: no binding
